# Measured values from article PMC3034650 (FEBS letters, 2010).
# B1: NFκB (p50(248-321)/p65(190-321)) (complex)
# chain 1: LKIVRMDRTAGCVTGGEEIYLLCDKVQKDDIQIRFYEEEENGGVWEGFGDFSPTDVHRQFAIVFKTPKYKDVNI
# chain 2: NTAELKICRVNRNSGSCLGGDEIFLLCDKVQKEDIEVYFTGPGWEARGSFSQADVHRQVAIVFRTPPYADPSLQAPVRVSMQLRRPSDRELSEPMEFQYLPDTDDRHRIEEKRKRTYETFKSIMKKSPFNGP
# modifications: biotin at the N-terminus
# Biological target: T1, Human IκBα(67-287), unhydroxylated (human, UniProt P25963 67-287)
# T1 sequence (looked up): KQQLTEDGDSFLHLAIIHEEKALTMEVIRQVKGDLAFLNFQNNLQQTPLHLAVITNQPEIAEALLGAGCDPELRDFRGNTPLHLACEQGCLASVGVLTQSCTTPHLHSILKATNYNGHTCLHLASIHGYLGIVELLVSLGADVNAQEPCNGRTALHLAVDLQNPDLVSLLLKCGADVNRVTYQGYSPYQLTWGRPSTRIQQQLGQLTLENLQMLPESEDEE
# Experiment: SPR
binder,measurement,value
B1,Kd,0.062 ± 0.012 nM
